Common to all, as to assay: cell-based or functional assay
The target of experiment [1] is Corynebacterium glutamicum SSB (Corynebacterium glutamicum).
Experiment [2] concerns the target Lactobacillus reuteri SSB (Lactobacillus reuteri).
Experiment [3] has as its target E. coli single-strand DNA-binding protein (SSB) (Escherichia coli) (UniProt P0AGE0).
Chain of UniProt P0AGE0 (P0AGE0 2-178 limits assumed): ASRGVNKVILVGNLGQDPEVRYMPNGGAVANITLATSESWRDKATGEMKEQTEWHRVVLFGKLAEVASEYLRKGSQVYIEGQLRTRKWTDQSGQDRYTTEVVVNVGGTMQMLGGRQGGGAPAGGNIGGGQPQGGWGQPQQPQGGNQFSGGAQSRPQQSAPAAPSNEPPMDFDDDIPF

For Corynebacterium glutamicum recT, the results for the Allele Recombination (AR) Frequency in E. coli, bi-cistronic co-expression in experiment [1] and in experiment [2] were 0.245 and 0.044, respectively. The same substance had an increase of AR frequency over the SSAP alone in experiment [1] of 10 fold.

On to Lactobacillus reuteri recT1, for which, in experiment [1], the Allele Recombination (AR) Frequency in E. coli, bi-cistronic co-expression was determined as 0.000496. Moreover, in experiment [2], the Allele Recombination (AR) Frequency in E. coli, bi-cistronic co-expression is 0.003 and the increase of recombination frequency over the SSAP alone was 10 fold.

With “λ β expressed from pARC8 in E. coli (no tag stated) (from UniProt P03698 1-261)”, in experiment [3], the Allele Recombination (AR) Frequency in E. coli, bi-cistronic co-expression amounted to 0.09.

The values above are taken from patent US20210332350A1.
